# Experimental data from paper PMC6237804, “Nonfilament-forming RecA dimer catalyzes homologous joint formation” (Nucleic Acids Research, 2018).
# Tests used:
# [1] = target: the molecule itself; assay: scanning-probe microscopy in dynamic force mode (DFM); RecA variant (0.2 μM RecA-wt or npRecA dimer, 0.8 μM npRecA monomer) incubated with linear pUC119 dsDNA (2.0 μM), ATPγS (0.5 mM), MgCl2 (10 mM), Tris-HCl pH 7.5, DTT, 30 min at 37°C; fixed with glutaraldehyde (0.2%) on mica; filament formation on DNA; also done with circular phage ssDNA
# npRecA monomer = npRecA monomer (UniProt P0A7G6 31-337, C117M;S118V;Q119R); assay: EMSA; no nucleotide cofactor; EMSA: standard reaction buffer (composition not in material), 4.5 uM (nt) ssDNA or 9.0 uM dsDNA, agarose gel, no fixation; 6-MI: 25 mM Tris-HCl pH 7.5, 10 mM MgCl2, 1 mM DTT, 25 C, 3.0 uM DNA; DFM: 0.5 mM ATPgS, 10 mM MgCl2, glutaraldehyde fixation; conditions: protein: recombinant; label: FAM
# RecA-3mΔC = RecA-3mΔC (UniProt P0A7G6 2-337, C117M;S118V;Q119R); assay: EMSA; 1.3 mM ATP; 'defective'; EMSA: standard reaction buffer (composition not in material), 4.5 uM (nt) ssDNA or 9.0 uM dsDNA, agarose gel, no fixation; 6-MI: 25 mM Tris-HCl pH 7.5, 10 mM MgCl2, 1 mM DTT, 25 C, 3.0 uM DNA; DFM: 0.5 mM ATPgS, 10 mM MgCl2, glutaraldehyde fixation; conditions: protein: recombinant; label: FAM
# RecA-3mΔC, sequence (P0A7G6 2-337 C117M/S118V/Q119R): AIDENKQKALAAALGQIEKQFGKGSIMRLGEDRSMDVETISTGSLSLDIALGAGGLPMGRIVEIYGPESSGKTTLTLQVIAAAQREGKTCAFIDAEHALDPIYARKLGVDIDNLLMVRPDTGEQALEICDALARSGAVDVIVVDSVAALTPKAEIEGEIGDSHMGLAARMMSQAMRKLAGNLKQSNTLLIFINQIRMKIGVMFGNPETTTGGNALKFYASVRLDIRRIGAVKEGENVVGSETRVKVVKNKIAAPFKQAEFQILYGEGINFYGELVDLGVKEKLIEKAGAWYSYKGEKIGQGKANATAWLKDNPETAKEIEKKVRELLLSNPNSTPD
# npRecA monomer, sequence (P0A7G6 31-337 C117M/S118V/Q119R): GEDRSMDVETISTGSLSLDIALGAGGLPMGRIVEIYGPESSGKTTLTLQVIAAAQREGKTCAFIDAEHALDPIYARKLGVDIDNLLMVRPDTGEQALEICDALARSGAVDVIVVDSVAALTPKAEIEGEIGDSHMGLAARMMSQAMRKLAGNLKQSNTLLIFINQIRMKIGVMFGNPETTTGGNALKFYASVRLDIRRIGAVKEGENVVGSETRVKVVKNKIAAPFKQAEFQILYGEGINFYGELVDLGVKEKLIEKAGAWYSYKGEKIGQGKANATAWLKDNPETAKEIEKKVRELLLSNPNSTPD
Binder,binding result [1],binding result (npRecA monomer),binding result (RecA-3mΔC)
"Wild-type RecA (RecA-wt) (natural protein, E. coli, UniProt P0A7G6 1-353, looked up, wild-type RecA, Escherichia coli; source: purified as previously described (21,33)) MAIDENKQKALAAALGQIEKQFGKGSIMRLGEDRSMDVETISTGSLSLDIALGAGGLPMGRIVEIYGPESSGKTTLTLQVIAAAQREGKTCAFIDAEHALDPIYARKLGVDIDNLLCSQPDTGEQALEICDALARSGAVDVIVVDSVAALTPKAEIEGEIGDSHMGLAARMMSQAMRKLAGNLKQSNTLLIFINQIRMKIGVMFGNPETTTGGNALKFYASVRLDIRRIGAVKEGENVVGSETRVKVVKNKIAAPFKQAEFQILYGEGINFYGELVDLGVKEKLIEKAGAWYSYKGEKIGQGKANATAWLKDNPETAKEIEKKVRELLLSNPNSTPDFSVDDSEGVAETNEDF",binds,–,–
OL2 90-mer ssDNA (ssDNA) DNA: AAATCAATCTAAAGTATATATGAGTAAACTTGGTCTGACAGTTACCAATGCTTAATCAGTGAGGCACCTATCTCAGCGATCTGTCTATTT,–,no binding,no binding
